Reference: patent US20240376214A1, “ANTI-C-MET ANTIBODIES AND ANTIBODY-DRUG CONJUGATES” (BYONDIS B.V., priority 2021, published 2024)
Residue numbers refer to the chain shown, from its start.

B1: mAb3c (antibody, human IgG1, kappa, V domains shown)
VH: QVQLVQSGAEVKKPGASVKVSCKASGYTFTDYYLNWVRQACGQGLEWMGLIFPGNDKTEYSEKFKGRVTLTTDTSISTAYMELSSLTSDDTALYYCSGGDYGGFVYWGQGTLVTVSS
VL: DIQMTQSPSSLSASVGDRVTITCGASENIYGALNWYQQKPGKAPKLLIYGATNLADGVPSRFSGSGSGTDFTLTISSLQPEDVATYYCQNVLSSPLTFGSGTKLEIKR
notes: Humanized IgG1 kappa, HC-41C, from wt/41C-chi-mAb3; also called humanized HC-41C antibody mAb3c
B2: mAb3a (antibody, human IgG1, kappa, V domains shown)
VH: B1 VH
VL: B1 VL with M4L, V83F, S100P, L104V, E105D
notes: Humanized IgG1 kappa, HC-41C, from wt/41C-chi-mAb3; also called humanized HC-41C antibody mAb3a
B3: mAb3e (antibody, human IgG1, kappa, V domains shown)
VH: B1 VH with V5Q, Q6E, L70M, T72R, I76T, A79V, T87R, D89E, L93V
VL: B1 VL
notes: Humanized IgG1 kappa, HC-41C, from wt/41C-chi-mAb3; also called humanized HC-41C antibody mAb3e
B4: mAb1a (antibody, human IgG1, kappa, V domains shown)
VH: QVQLVQSGAEVKKPGASVKVSCKASGYIFTDYFMNWVRQACGQGLEWMGRVNPKNGDITYNQKFRGRVSLTKDTSINTAYMELSGLTSDDTAIYYCAYDGYYDGMDFWGQGTSVTVSS
VL: ELVMTQSPSSLSASVGDRVTITCRANSSVSSNFLHWYQQKPGKAPKLLISSTSNLAFGVPSRFSGTGSGTDFSLTISSLQPEDFAIYYCHQYSGHPFTFGQGTKLEIKR
notes: Humanized IgG1 kappa, HC-41C, from wt/41C-chi-mAb1; also called humanized HC-41C antibody mAb1a; mAbla
B5: mAb2c (antibody, human IgG1, kappa, V domains shown)
VH: QVQLVQSGAEVKKPGSSVKVSCKASGYVFPDYEMHWVRQACGQGLEWMGAFDPETGDTTYNQNFKGRVTITADKSTSTAYMELSSLRSEDTAVYYCARDYKYLYYYAMDNWGQGTTVTVSS
VL: EIVLTQSPSLLSASIGDRVTIPCTASSSITSSYLHWYQQKPGKAPKLLIYSTTNLASGVPSRFSGSGSGTEFTLTISSLQPEDFATYYCHQYRRSPLTFGGGTKLEIKR
notes: Humanized IgG1 kappa, HC-41C, from wt/41C-chi-mAb2; also called humanized HC-41C antibody mAb2c
B6: mAb2a (antibody, human IgG1, kappa, V domains shown)
VH: B5 VH with V11L, K12R, K23R, T71A, S84R, V93I, T116M
VL: B5 VL
notes: Humanized IgG1 kappa, HC-41C, from wt/41C-chi-mAb2; also called humanized HC-41C antibody mAb2a
B7: mAb2b (antibody, human IgG1, kappa, V domains shown)
VH: B5 VH
VL: B5 VL with E1D, V3Q, L4M, L10S, I15V, P22T, E71D
notes: Humanized IgG1 kappa, HC-41C, from wt/41C-chi-mAb2; also called humanized HC-41C antibody mAb2b
B8: mAb3d (antibody, human IgG1, kappa, V domains shown)
VH: B1 VH with V5Q, Q6E, L70M, T72R, I76T, A79V, T87R, D89E, L93V
VL: B1 VL with M4L, V83F, S100P, L104V, E105D
notes: Humanized IgG1 kappa, HC-41C, from wt/41C-chi-mAb3; also called humanized HC-41C antibody mAb3d
B9: wt-chi-mAb1 (antibody, human IgG1, kappa, V domains shown)
VH: EVQLQQSGPELLKPGASVKMSCKASGYIFTDYFMNWVKQSHGKSLEWIGRVNPKNGDITYNQKFRGKATLTVDKSLTTAYMQLNSLTSEDSAVYFCAYDGYYDGMDFWGQGTSVTVSS
VL: ENVLTQSPAIMSASPGEKVTMTCRANSSVSSNFLHWYQQKSGASPKLWISSTSNLAFGVPPRFSGSGSGTSYSLTISSVEAEDAATYYCHQYSGHPFTFGSGTKLEIKR
notes: Mouse/human chimeric IgG1 kappa; also called wild-type chimeric antibody mAb1
B10: 41C-chi-mAb1 (antibody, human IgG1, kappa, V domains shown)
VH: B9 VH with H41C
VL: B9 VL
notes: Chimeric IgG1 kappa with an engineered cysteine at HC position 41 (Kabat); also called HC-41C chimeric antibody mAb1

What was measured:
[1] = biological target: human c-Met (HGFR), full length, on the cell surface (human) (UniProt P08581); test: cell-based or functional assay
[2] = biological target: T1, human c-Met (HGFR), full length, on the cell surface (human, UniProt P08581 25-1390); test: flow cytometry, PC-3 cells; EC50 with 50 ng/mL HGF against EC50 without HGF
T1 construct: Endogenous c-Met on human tumor cell lines MKN45, NCI-H596, PC-3 and HepG2; also called hepatocyte growth factor receptor; mesenchymal-epithelial transition factor
Description: (§1) Cellular binding of the in total 75 humanized anti-c-Met antibodies (originating from the three selected chimeric antibodies) was studied in human c-Met-positive tumor cell lines MKN45, NCI-H596 and PC-3, rhesus c-Met-positive tumor cell line 4 MBr-5, and human c-Met-negative tumor cell line MDA-MB-175-VII. Cells were used around 90% of confluence at the time of an assay, detached with Trypsin-Versene (EDTA) (Lonza) for 5-10 minutes, washed and adjusted to a concentration of 1×10⁶ cells/mL in ice-cold FACS buffer (PBS 1×, 0.1% v/w BSA, 0.02% v/v sodium azide (NaN₃)). Staining was performed in 96-well round-bottomed microtiter plates using ice-cold reagents/solutions at 4° C. to prevent the modulation and internalization of surface antigens. 100,000 cells/well were added to 96-well plates (100 μL/well) and centrifuged at 300×g for 3 minutes. In case of pre-incubation with HGF, the cells were resuspended in 50 ng/mL recombinant human HGF in FACS buffer (50 μL/well) and incubated for 30 minutes at 4° C., followed by two wash steps with 150 μL FACS buffer. Supernatant was discarded and cells were stained for 30 minutes with 50 μL of each antibody. Serial dilutions were made in ice-cold FACS buffer. Cells were washed twice by centrifugation at 300×g for 3 minutes and resuspended in 50 μL 6000-times diluted secondary F(ab′)₂ goat anti-human IgG (Fc fragment specific) antibody APC-conjugated (Jackson ImmunoResearch). Following a 30-minute incubation on ice, cells were washed again 2 times and resuspended in 150 μL ice-cold FACS buffer for FACS analysis. For analysis of the data, the Median Fluorescence Intensity (MFI) values were obtained.

[3] = biological target: T1, human c-Met (HGFR), full length, on the …; test: flow cytometry, NCI-H596 cells; EC50 with 50 ng/mL HGF against EC50 without HGF
Description: as §1

[4] = biological target: T1, human c-Met (HGFR), full length, on the …; test: flow cytometry, PC-3 cells pre-incubated with 50 ng/mL HGF
Description: as §1

[5] = biological target: T2, rhesus c-Met on 4MBr-5 cells (rhesus, UniProt F7H1K4 25-1381, Natural c-Met is cleaved at the furin site (KRKKR/S) into disulphide-linked alpha and beta subunits; given here as one mature polypeptide.); test: flow cytometry, 4MBr-5 cells; EC50 with 50 ng/mL HGF against EC50 without HGF
T2 construct: also called rhesus c-Met antigen
Description: as §1

[6] = biological target: T1, human c-Met (HGFR), full length, on the …; test: flow cytometry, NCI-H596 cells pre-incubated with 50 ng/mL HGF
Description: as §1

[7] = biological target: T1, human c-Met (HGFR), full length, on the …; test: flow cytometry, NCI-H596 cells, without HGF
Description: as §1

[8] = biological target: T2, rhesus c-Met on 4MBr-5 cells; test: flow cytometry, 4MBr-5 cells, without HGF
Description: as §1

[9] = biological target: T2, rhesus c-Met on 4MBr-5 cells; test: flow cytometry, 4MBr-5 cells pre-incubated with 50 ng/mL HGF
Description: as §1

[10] = biological target: T1, human c-Met (HGFR), full length, on the …; test: flow cytometry, MKN45 cells, without HGF
Description: as §1

[11] = biological target: T1, human c-Met (HGFR), full length, on the …; test: flow cytometry, PC-3 cells, without HGF
Description: as §1

[12] = biological target: T1, human c-Met (HGFR), full length, on the …; test: flow cytometry on MKN45, NCI-H596 and PC-3 cells
Description: as §1, with “14 wild-type chimeric and the 14 HC-41C chimeric” for “in total 75 humanized”, “antibodies” for “antibodies (originating from the three selected chimeric antibodies)”, “HGF (paracrine cell lines only),” for “HGF,”

T1 sequence (P08581 25-1390 limits assumed): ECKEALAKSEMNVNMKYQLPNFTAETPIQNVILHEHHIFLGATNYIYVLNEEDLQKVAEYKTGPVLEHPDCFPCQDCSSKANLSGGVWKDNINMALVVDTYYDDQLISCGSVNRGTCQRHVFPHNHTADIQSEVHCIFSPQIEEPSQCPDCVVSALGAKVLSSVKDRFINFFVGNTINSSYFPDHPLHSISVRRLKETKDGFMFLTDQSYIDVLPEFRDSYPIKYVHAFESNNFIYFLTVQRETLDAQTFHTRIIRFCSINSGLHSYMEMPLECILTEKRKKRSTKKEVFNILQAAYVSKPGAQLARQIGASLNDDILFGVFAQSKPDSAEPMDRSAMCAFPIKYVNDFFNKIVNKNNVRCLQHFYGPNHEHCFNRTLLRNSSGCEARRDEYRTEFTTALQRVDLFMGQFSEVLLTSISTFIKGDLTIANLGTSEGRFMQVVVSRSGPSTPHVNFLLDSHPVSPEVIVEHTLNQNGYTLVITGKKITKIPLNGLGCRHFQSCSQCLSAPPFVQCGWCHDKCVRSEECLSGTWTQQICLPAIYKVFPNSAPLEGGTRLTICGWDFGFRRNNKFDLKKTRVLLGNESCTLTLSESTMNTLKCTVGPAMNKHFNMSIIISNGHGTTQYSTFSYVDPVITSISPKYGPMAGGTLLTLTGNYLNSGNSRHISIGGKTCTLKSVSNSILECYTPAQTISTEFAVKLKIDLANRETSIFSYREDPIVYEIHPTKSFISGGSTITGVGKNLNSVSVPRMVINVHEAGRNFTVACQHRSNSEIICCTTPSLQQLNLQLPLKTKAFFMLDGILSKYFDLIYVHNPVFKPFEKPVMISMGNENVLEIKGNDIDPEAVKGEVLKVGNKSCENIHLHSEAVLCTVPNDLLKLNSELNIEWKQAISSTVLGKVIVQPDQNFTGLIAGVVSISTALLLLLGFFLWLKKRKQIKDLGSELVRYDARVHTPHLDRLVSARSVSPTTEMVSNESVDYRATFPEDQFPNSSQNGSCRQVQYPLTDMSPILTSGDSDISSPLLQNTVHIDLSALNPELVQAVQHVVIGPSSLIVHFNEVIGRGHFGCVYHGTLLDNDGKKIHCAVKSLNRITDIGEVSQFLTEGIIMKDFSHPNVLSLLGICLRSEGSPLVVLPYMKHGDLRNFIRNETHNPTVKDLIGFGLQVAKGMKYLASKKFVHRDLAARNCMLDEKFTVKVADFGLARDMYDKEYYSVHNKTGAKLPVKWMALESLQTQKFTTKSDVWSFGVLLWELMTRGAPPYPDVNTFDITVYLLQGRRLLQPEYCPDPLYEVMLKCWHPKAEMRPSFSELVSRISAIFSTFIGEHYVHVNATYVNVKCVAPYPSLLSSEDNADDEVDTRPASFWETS
human c-Met (HGFR), full length, on the cell surface (human), sequence (P08581 25-1390 limits assumed): as above
T2 sequence (F7H1K4 entry or part of it limits assumed): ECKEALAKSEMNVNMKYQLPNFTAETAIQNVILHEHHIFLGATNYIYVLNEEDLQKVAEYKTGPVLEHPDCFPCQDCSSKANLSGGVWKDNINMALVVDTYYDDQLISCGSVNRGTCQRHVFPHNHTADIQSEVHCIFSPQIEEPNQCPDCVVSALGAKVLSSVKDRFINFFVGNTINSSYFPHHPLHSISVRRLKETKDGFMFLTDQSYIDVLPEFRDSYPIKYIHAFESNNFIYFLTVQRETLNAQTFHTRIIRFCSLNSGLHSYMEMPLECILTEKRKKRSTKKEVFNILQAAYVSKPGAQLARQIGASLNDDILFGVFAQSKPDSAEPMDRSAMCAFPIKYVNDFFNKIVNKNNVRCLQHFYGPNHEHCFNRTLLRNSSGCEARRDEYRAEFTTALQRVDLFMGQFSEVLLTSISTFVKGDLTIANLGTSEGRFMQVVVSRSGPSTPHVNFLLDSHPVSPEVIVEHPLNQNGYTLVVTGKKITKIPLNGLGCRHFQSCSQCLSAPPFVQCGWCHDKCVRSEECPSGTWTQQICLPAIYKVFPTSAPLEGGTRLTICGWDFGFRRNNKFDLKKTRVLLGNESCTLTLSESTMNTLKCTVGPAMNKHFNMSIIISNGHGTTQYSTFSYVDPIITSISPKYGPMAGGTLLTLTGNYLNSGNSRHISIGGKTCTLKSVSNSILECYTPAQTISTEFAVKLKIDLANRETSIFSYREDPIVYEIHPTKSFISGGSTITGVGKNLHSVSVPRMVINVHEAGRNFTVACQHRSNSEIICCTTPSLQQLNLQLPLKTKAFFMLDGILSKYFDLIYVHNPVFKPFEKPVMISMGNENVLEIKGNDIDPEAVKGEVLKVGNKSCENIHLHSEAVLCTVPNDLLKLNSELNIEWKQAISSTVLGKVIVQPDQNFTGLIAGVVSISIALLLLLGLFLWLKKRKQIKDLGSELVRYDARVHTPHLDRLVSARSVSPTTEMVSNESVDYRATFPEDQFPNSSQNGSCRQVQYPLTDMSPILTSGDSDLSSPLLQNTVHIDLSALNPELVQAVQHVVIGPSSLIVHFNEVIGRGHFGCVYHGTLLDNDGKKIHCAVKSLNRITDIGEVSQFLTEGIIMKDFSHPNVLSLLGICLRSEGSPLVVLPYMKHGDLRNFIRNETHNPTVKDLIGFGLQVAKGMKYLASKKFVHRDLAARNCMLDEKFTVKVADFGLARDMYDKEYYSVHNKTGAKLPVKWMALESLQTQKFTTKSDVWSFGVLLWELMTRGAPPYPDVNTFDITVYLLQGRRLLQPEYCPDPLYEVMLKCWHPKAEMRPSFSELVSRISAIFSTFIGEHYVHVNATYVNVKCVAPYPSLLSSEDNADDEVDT

| Molecule | Fold shift (HGF) [2] [fold] | Fold shift (HGF) [3] [fold] | EC50 [4] [µg/mL] | Fold shift (HGF) [5] [fold] | EC50 [6] [µg/mL] | EC50 [7] [µg/mL] | EC50 [8] [µg/mL] | EC50 [9] [µg/mL] | EC50 [10] [µg/mL] | EC50 [11] [µg/mL] | further results |
| --- | --- | --- | --- | --- | --- | --- | --- | --- | --- | --- | --- |
| non-binding control ADC (rituximab-vc-seco-DUBA) (antibody) |  |  |  |  |  |  |  |  |  |  | Efficacy (%), in vitro cytotoxicity, MKN-45, -HGF [1]: 0%; Efficacy (%), in vitro cytotoxicity, NCI-H596, +HGF [1]: 18%; Efficacy (%), in vitro cytotoxicity, NCI-H596, -HGF [1]: 7%; Efficacy (%), in vitro cytotoxicity, PC-3, +HGF [1]: 36%; Efficacy (%), in vitro cytotoxicity, PC-3, -HGF [1]: 36%; IC50, in vitro cytotoxicity, MKN-45, -HGF [1]: > 10 nM; IC50, in vitro cytotoxicity, NCI-H596, +HGF [1]: > 10 nM; IC50, in vitro cytotoxicity, NCI-H596, -HGF [1]: > 10 nM; IC50, in vitro cytotoxicity, PC-3, +HGF [1]: > 10 nM; IC50, in vitro cytotoxicity, PC-3, -HGF [1]: > 10 nM |
| B1 | 1.9 | 5.5 | 0.06 | 1.7 | 0.11 | 0.02 | 0.02 | 0.03 | 0.05 | 0.03 |  |
| B2 | 2.4 | 4 | 0.07 | 0.8 | 0.08 | 0.02 | 0.04 | 0.03 | 0.07 | 0.03 |  |
| B3 | 2.8 | 7 | 0.09 | 1.4 | 0.14 | 0.02 | 0.03 | 0.04 | 0.07 | 0.03 |  |
| B4 | 1.9 | 2.5 | 0.15 | 1.1 | 0.1 | 0.04 | 0.07 | 0.08 | 0.16 | 0.08 |  |
| B5 | 3.1 | 3.3 | 0.09 | 1.2 | 0.1 | 0.03 | 0.07 | 0.09 | 0.11 | 0.03 |  |
| B6 | 2.3 | 4 | 0.09 | 1.4 | 0.08 | 0.02 | 0.06 | 0.09 | 0.09 | 0.04 |  |
| B7 | 2.6 | 2.8 | 0.13 | 1.7 | 0.11 | 0.04 | 0.09 | 0.15 | 0.14 | 0.05 |  |
| B8 | 2.7 | 7.5 | 0.08 | 1.6 | 0.15 | 0.02 | 0.03 | 0.05 | 0.07 | 0.03 |  |
| B9 |  |  |  |  |  |  |  |  |  |  | binding result [12]: binds |
| B10 |  |  |  |  |  |  |  |  |  |  | binding result [12]: binds |
